How the values were obtained:
E. coli = test: Brown Color Assay (cell-based colorimetric assay of HPPD activity and tolerance to HPPD inhibitors); conditions: in the presence of 1 mM Cmpd. 1; for brown color formation: read at 440 nm
Experimental: A specific, although non-limiting, type of assay that can be used to evaluate the HPPD sequences of the invention is a colorimetric assay. In this assay, a YT-broth-type culture medium with 1% agarose, 5 mM L-Tyrosine and 42 mM Succinate, which contains the selection agent for the vector pSE420 (Invitrogen, Karlsruhe, Germany) or a modified version of pSE420 (pSE420(RI)NX) is poured into deep well plates. E. coli culture in the exponential growth phase which contains the vector pSE420-HPPDx (HPPDx means any gene coding for a putative HPPD enzyme/protein) is applied to each well.
Confirmation of activity by Brown Color Assay: To confirm that the designated hits retain HPPD activity and are tolerant to HPPD inhibitors, a cell-based colorimetric assay was employed. Wild-type E. coli strains lack the HPPD pathway; therefore expressing an HPPD enzyme in the presence of the substrate hydroxyphenylpyruvate (HPP) leads to the accumulation of the product, homogentisate (HGA). HGA is, in turn, auto-oxidized to a brown pigment, pyomelanin, which can be read at 440 nm. When cells are grown in the presence of an herbicide, brown color formation is inhibited with no effect on cell growth. The pRANGER vector is a low-copy, broad host range vector that allows some expression in E. coli.

Cmpd. 1 = test: HitMix bacterial competition experiment against Cmpd. 1; assay type: cell-based; conditions: plasmid DNA of SG1, SG10 and reference proteins mixed, transformed and screened against Cmpd. 1
Excerpt: Screening variant libraries: In order to select improved variants, libraries of varying complexity were constructed in the pRANGER backbone. The first significant library to be screened was a multi-site saturation library, in which amino acid positions 338, 339, 340, and 341 were randomized with NNK codons, which use 32 codons to encode all 20 amino acids, for a theoretical complexity of 1.6×10^5 unique protein variants. Approximately 500,000 variants were transformed and screened in a bacterial competition assay against 5 mM Cmpd. 1 (2-chloro-3-(methylsulfanyl)-N-(1-methyl-1H-tetrazol-5-yl)-4-(trifluoromethyl)benzamide), and surviving clones were sequenced. After 3 rounds of subculturing, a single sequence was found and designated SG1 (Table 1). This sequence was used as the base gene for a 2nd generation library saturating positions 268, 270, 340, and 345. Similarly, these libraries were screened and SG10 (Table 1) was obtained from sequencing the surviving cultures at high concentrations of Cmpd. 1. To confirm that the hits had improved tolerance relative to K610, a “HitMix” competition experiment was carried out. Briefly, the plasmid DNA encoding each variant to be competed were mixed together in an Eppendorf tube, and then the DNA mixture was transformed and screened against Cmpd. 1 as previously described.

Thorne soybean plants = test: Greenhouse herbicide spray application on T0 soybean plants; assay type: in vivo; conditions: single gene cassettes in Thorne soybean, T0 plants sprayed with Cmpd. 1
Excerpt: SG1, SG10, SG20, and SG22 were transformed as single gene cassettes into Thorne soybean plants and T0 plants were sprayed with Cmpd. 1 to measure herbicide tolerance. Each iteration of mutant identified in the bacterial screening assay performed better than the previous version (SG20>SG10>SG1).

Molecule	brown color formation relative to HPPD(evo41) (E. coli)	brown color formation (E. coli)	outcome of HitMix competition among variants (Cmpd. 1)	herbicide tolerance in planta (Thorne soybean plants)
SG10: HPPD variant, SEQ ID NO:3; P268D, E335P, G336D, N337S, K339Y, A340R, I345M (protein, SG10 Mutant HPPD, P268D, E335P, G336D, N337S, K339Y, A340R, I345M) MADLYENPMGLMGFEFIEFASPTPGTLEPIFEIMGFTKVATHRSKNVHLYRQGEINLILNNEPNSIASYFAAEHGPSVCGMAFRVKDSQKAYNRALELGAQPIHIDTGPMELNLPAIKGIGGAPLYLIDRFGEGSSIYDIDFVYLEGVERNPVGAGLKVIDHLTHNVYRGRMVYWANFYEKLFNFREARYFDIKGEYTGLTSKAMSAPDGMIRIPLNEESSKGAGQIEEFLMQFNGEGIQHVAFLTDDLVKTWDALKKIGMRFMTAPDDTYYEMLEGRLPDHGEPVDQLQARGILLDGSSVEGDKRLLLQIFSETLMGPVFFEFIQRKGDDGFGPDSFYRLFESMERDQVRRGVLTAD	improved relative to HPPD(evo41)	robust brown color formation	emerged as the dominant sequence among all variants tested	SG20>SG10>SG1
SG1: HPPD variant, SEQ ID NO:2; E335P, G336D, N337S, K339Y, A340R relative to SEQ ID NO:1 (protein, SG1 variant HPPD) MADLYENPMGLMGFEFIEFASPTPGTLEPIFEIMGFTKVATHRSKNVHLYRQGEINLILNNEPNSIASYFAAEHGPSVCGMAFRVKDSQKAYNRALELGAQPIHIDTGPMELNLPAIKGIGGAPLYLIDRFGEGSSIYDIDFVYLEGVERNPVGAGLKVIDHLTHNVYRGRMVYWANFYEKLFNFREARYFDIKGEYTGLTSKAMSAPDGMIRIPLNEESSKGAGQIEEFLMQFNGEGIQHVAFLTDDLVKTWDALKKIGMRFMTAPPDTYYEMLEGRLPDHGEPVDQLQARGILLDGSSVEGDKRLLLQIFSETLMGPVFFEFIQRKGDDGFGPDSFYRLFESIERDQVRRGVLTAD	improved relative to HPPD(evo41)	robust brown color formation		SG20>SG10>SG1
SG20: HPPD variant, SEQ ID NO:4; P268D, T270A, E335P, G336D, N337S, K339Y, A340R, S344Q, I345M (protein, SG20 mutant HPPD, P268D, T270A, E335P, G336D, N337S, K339Y, A340R, S344Q, I345M) MADLYENPMGLMGFEFIEFASPTPGTLEPIFEIMGFTKVATHRSKNVHLYRQGEINLILNNEPNSIASYFAAEHGPSVCGMAFRVKDSQKAYNRALELGAQPIHIDTGPMELNLPAIKGIGGAPLYLIDRFGEGSSIYDIDFVYLEGVERNPVGAGLKVIDHLTHNVYRGRMVYWANFYEKLFNFREARYFDIKGEYTGLTSKAMSAPDGMIRIPLNEESSKGAGQIEEFLMQFNGEGIQHVAFLTDDLVKTWDALKKIGMRFMTAPDDAYYEMLEGRLPDHGEPVDQLQARGILLDGSSVEGDKRLLLQIFSETLMGPVFFEFIQRKGDDGFGPDSFYRLFEQMERDQVRRGVLTAD				SG20>SG10>SG1
SG22: HPPD variant, SEQ ID NO:5; P268D, E335N, G336D, N337S, A340R, I345M (protein, SG22 mutant HPPD, P268D, E335N, G336D, N337S, A340R, I345M) MADLYENPMGLMGFEFIEFASPTPGTLEPIFEIMGFTKVATHRSKNVHLYRQGEINLILNNEPNSIASYFAAEHGPSVCGMAFRVKDSQKAYNRALELGAQPIHIDTGPMELNLPAIKGIGGAPLYLIDRFGEGSSIYDIDFVYLEGVERNPVGAGLKVIDHLTHNVYRGRMVYWANFYEKLFNFREARYFDIKGEYTGLTSKAMSAPDGMIRIPLNEESSKGAGQIEEFLMQFNGEGIQHVAFLTDDLVKTWDALKKIGMRFMTAPDDTYYEMLEGRLPDHGEPVDQLQARGILLDGSSVEGDKRLLLQIFSETLMGPVFFEFIQRKGDDGFGNDSFKRLFESMERDQVRRGVLTAD				performed similarly to SG1
